Tests used:
C-PAE cells = assay: Endothelial cell proliferation, 3H-thymidine incorporation; assay type: cell-based, bovine
Method: C-PAE cells were grown to confluence in DMEM with 10% fetal calf serum (FCS) and kept contact inhibited for 48 hours. Control cells were 786-O (renal carcinoma) cells, PC-3 cells, HPEC cells, and A-498 (renal carcinoma) cells. Cells were harvested with trypsinization (Life Technologies/Gibco BRL, Gaithersburg, Md., USA) at 37° C. for five minutes. A suspension of 12,500 cells in DMEM with 1% FCS was added to each well of a 24-well plate coated with 10 μg/ml fibronectin. The cells were incubated for 24 hours at 37° C. with 5% CO2 and 95% humidity. […] Unstimulated controls received no bFGF. Cells were treated with concentrations of Arresten or endostatin ranging from 0.01 to 50 μg/ml. All wells received 1 μCurie of ^3H-thymidine at the time of treatment. After 24 hours, medium was removed and the wells were washed with PBS. Cells were extracted with 1N NaOH and added to a scintillation vial containing 4 ml of ScintiVerse II (Fisher Scientific, Pittsburgh, Pa., USA) solution. Thymidine incorporation was measured using a scintillation counter. The results are shown in FIGS. 3A and 3B, which are a pair of graphs showing incorporation of ^3H-thymidine into C-PAE cells treated with varying amounts of Arresten (FIG. 3A) or endostatin (FIG. 3B). Arresten appeared to inhibit thymidine incorporation in C-PAE as well as did endostatin. Behavior of control cells treated with Arresten and endostatin is also shown in FIG. 4A, 4B, 4C, and 4D, with Arresten having little effect on 786-O cells (FIG. 4A), PC-3 cells (FIG. 4B), or HPEC cells (FIG. 4C). Endostatin had little effect on A-498 cells (FIG. 4D). All groups in FIGS. 3 and 4 represent triplicate samples.
Bovine calf aortic endothelial (C-PAE) cells were grown to confluence in DMEM with 10% fetal calf serum (FCS) and kept contact inhibited for 48 hours. […] Radioactivity was extracted with 1N NaOH and added to a scintillation vial containing 4 ml of ScintiVerse II (Fisher Scientific, Pittsburgh, Pa., USA) solution. Thymidine incorporation was measured using a scintillation counter. […]

C-PAE = assay: Endothelial tube formation assay (Table 4); assay type: cell-based, bovine
Method: Deletion fragments of tumstatin were cloned into bacterial expression vectors, expressed, purified using nickel chromoatography, and then analyzed for in vitro anti-angiogenic, and associated, activity. Special efforts were made to ensure the removal of contaminating endotoxins from the protein preparations. Full-length Tumstatin, Tumstatin-N53 and two additional deletion mutants (Tum-2C and Tum-KE) were made and tested. The deletion mutants were tested for endothelial cell proliferation, cell cycle progression, apoptosis, and endothelial tube formation.

B1: endostatin: tumor associated angiogenesis inhibitor used as comparator (protein, UniProt P39060 1572-1754, looked up)
Endostatin: HSHRDFQPVLHLVALNSPLSGGMRGIRGADFQCFQQARAVGLAGTFRAFLSSRLQDLYSIVRRADRAAVPIVNLKDELLFPSWEALFSGSEGPLKPGARIFSFDGKDVLRHPTWPQKSVWHGSDPNGRRLTESYCETWRTEAPSATGQASSLLGGRLLGQSAASCHHAYIVLCIENSFMTASK
modifications: Endostatin
- ED50, inhibition of proliferation (C-PAE cells; bFGF-stimulated, E. Coli-produced Arresten): 0.75 µg/mL

B2: Tumstatin: NC1 domain of the α3 chain of type IV collagen, residues 1-244 (SEQ ID NO:10) (protein, listed as Homo sapiens)
chain: GLKGKRGDSGSPATWTTRGFVFTRHSQTTAIPSCPEGTVPLYSGFSFLFVQGNQRAHGQDLGTLGSCLQRFTTMPFLFCNVNDVCNFASRNDYSYWLSTPALMPMNMAPITGRALEPYISRCTVCEGPAIAIAVHSQTTDIPPCPHGWISLWKGFSFIMFTSAGSEGTGQALASPGSCLEEFRASPFLECHGRGTCNYYSNSYSFWLASLNPERMFRKPIPSTVKAGELEKIISRCQVCMKKRH
- Tube (Endothelial tube formation assay) (C-PAE): active
- ED50, inhibition of 3H-thymidine incorporation (C-PAE cells; 20% FCS stimulated): approximately 0.01 mg/ml

B3: Tum-1: residues 54 to 244 of Tumstatin, lacking the N-terminal 53 amino acids (SEQ ID NO:22) (protein)
chain: QRAHGQDLGTLGSCLQRFTTMPFLFCNVNDVCNFASRNDYSYWLSTPALMPMNMAPITGRALEPYISRCTVCEGPAIAIAVHSQTTDIPPCPHGWISLWKGFSFIMFTSAGSEGTGQALASPGSCLEEFRASPFLECHGRGTCNYYSNSYSFWLASLNPERMFRKPIPSTVKAGELEKIISRCQVCMKKRH
modifications: Tum-1 (Tumstatin N-53) (amino acids 54-244 of SEQ ID NO10)
- Tube (Endothelial tube formation assay) (C-PAE): active

B4: Tumstatin-44-131: residues 44 to 131 of full-length Tumstatin (SEQ ID NO:33) (protein)
chain: FSFLFVQGNQRAHGQDLGTLGSCLQRFTTMPFLFCNVNDVCNFASRNDYSYWLSTPALMPMNMAPITGRALEPYISRCTVCEGPAIAI
modifications: Tumstatin-45-132 (amino acids 45-132 of SEQ ID NO10)
- Tube (Endothelial tube formation assay) (C-PAE): active

B5: Canstatin: NC1 domain of the α2 chain of Type IV collagen (SEQ ID NO:6) (protein, listed as Homo sapiens)
chain: VSIGYLLVKHSQTDQEPMCPVGMNKLWSGYSLLYFEGQEKAHNQDLGLAGSCLARFSTMPFLYCNPGDVCYYASRNDKSYWLSTTAPLPMMPVAEDEIKPYISRCSVCEAPAIAIAVHSQDVSIPHCPAGWRSLWIGYSFLMHTAAGDEGGGQSLVSPGSCLEDFRATPFIECNGGRGTCHYYANKYSFWLTTIPEQSFQGSPSADTLKAGLIRTHISRCQVCMKNL
- ED50, inhibition of proliferation (C-PAE cells; 10% serum-stimulated): approximately 0.5 μg/ml

— patent US7387779B2, “Anti-angiogenic proteins and fragments and methods of use thereof” (Beth Israel Deaconess Medical Center, priority 1998, dated 2008)
